Data reported in patent publication US20100297003A1 (TECNOGEN S C P A, published 2010).
Values belong to the molecule of their own block, whether it stands above or below them.

Legend:
[1] = target: T1, Tn (A(1-4)-D) fragment of human tenascin (human, UniProt P24821 1076-1711, limits assumed); test: BIAcore on Tn (A1-4-D) fragment
T1 construct: domain: A(1-4)-D
T1 sequence (looked up): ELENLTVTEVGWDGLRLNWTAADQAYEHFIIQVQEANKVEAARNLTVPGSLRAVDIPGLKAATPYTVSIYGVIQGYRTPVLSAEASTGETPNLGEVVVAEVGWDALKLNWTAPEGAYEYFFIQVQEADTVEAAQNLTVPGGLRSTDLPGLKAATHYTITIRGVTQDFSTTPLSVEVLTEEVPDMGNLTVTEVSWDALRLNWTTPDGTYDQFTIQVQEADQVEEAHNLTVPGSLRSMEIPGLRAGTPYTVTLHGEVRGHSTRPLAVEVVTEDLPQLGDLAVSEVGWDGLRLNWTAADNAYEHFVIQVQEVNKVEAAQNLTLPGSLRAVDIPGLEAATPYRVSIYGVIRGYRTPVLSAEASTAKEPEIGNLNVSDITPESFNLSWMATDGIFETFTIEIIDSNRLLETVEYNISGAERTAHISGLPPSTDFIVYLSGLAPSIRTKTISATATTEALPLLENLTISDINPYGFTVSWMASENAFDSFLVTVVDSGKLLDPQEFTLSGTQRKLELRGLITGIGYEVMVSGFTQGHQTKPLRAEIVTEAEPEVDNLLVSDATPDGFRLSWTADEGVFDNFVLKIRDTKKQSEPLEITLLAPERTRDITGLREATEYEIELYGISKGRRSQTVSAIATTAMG

human tenascin C (human) [2] = target: human tenascin C (human) (UniProt P24821); test: BIAcore on tenascin C
Chain of human tenascin C (human) (P24821 23-2201): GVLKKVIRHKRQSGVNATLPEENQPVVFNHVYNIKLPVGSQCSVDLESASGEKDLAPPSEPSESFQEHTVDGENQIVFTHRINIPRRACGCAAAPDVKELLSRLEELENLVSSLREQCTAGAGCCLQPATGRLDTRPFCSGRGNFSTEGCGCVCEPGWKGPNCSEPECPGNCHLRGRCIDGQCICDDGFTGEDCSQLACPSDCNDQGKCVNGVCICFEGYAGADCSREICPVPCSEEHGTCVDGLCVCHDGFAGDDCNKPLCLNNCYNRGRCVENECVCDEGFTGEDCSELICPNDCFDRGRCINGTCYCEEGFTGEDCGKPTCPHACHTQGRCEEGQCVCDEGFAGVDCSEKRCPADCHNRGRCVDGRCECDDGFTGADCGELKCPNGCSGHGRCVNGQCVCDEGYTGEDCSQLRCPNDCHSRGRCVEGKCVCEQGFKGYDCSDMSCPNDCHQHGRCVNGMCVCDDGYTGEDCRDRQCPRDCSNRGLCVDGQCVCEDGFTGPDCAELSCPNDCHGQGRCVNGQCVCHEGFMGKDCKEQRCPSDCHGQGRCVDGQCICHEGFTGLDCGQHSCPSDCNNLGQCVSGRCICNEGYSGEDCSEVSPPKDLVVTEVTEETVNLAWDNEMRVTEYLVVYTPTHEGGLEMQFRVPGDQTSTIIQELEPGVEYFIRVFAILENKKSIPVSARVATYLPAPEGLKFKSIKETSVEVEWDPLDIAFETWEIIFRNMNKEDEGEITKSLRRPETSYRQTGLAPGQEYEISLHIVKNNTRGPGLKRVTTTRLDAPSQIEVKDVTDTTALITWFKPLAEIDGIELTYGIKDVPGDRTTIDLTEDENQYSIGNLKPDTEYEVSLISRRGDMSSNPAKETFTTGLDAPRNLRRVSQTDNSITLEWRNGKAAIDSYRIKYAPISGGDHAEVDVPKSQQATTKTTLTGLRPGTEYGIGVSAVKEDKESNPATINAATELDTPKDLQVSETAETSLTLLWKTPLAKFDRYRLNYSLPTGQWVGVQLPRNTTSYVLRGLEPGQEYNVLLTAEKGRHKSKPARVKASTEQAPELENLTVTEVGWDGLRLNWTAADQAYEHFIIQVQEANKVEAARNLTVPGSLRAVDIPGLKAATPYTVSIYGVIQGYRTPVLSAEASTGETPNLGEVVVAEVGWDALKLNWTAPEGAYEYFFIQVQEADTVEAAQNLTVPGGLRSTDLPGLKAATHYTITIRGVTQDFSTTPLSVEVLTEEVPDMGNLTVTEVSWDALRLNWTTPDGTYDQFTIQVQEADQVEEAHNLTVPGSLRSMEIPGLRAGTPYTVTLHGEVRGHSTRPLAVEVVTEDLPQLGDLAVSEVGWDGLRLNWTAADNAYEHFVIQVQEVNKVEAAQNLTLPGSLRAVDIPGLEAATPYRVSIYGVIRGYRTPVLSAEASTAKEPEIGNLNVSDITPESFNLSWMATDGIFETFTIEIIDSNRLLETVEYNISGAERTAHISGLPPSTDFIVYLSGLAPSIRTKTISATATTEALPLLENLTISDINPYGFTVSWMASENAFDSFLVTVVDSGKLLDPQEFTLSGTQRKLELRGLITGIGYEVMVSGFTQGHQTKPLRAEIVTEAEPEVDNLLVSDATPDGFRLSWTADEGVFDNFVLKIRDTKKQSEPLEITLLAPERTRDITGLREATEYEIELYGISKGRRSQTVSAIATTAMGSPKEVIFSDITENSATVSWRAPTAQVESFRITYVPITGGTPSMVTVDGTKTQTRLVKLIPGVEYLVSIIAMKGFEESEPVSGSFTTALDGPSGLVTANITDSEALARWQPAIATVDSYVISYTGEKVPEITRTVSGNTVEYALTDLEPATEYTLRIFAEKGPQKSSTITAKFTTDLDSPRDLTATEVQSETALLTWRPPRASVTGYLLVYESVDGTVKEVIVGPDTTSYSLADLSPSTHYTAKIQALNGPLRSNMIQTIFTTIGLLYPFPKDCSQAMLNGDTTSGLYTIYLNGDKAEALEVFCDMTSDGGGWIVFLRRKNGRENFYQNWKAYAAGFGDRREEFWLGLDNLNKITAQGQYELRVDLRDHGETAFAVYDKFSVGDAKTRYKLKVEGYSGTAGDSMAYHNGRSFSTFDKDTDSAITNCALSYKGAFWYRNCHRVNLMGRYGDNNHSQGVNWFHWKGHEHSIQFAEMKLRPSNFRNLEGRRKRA

human tenascin C (human) [3] = target: human tenascin C (human) (UniProt P24821); test: ELISA on tenascin C, biotinylated against non-biotinylated antibody
[4] = target: T1, Tn (A(1-4)-D) fragment of human tenascin; test: ELISA on Tn A(1-4)-D fragment, biotinylated against non-biotinylated antibody
human tenascin C (human) [5] = target: human tenascin C (human) (UniProt P24821); test: BIAcore on whole tenascin
[6] = target: T1, Tn (A(1-4)-D) fragment of human tenascin; test: ELISA on plates coated with Tn A(1-4)-D fragment, reference BC-2
Description: The immunoreactivity of ST2485 was evaluated in comparison with BC-2 by ELISA assay on tenascin C and on the Tn A₍₁₋₄₎-D fragment, as shown in FIG. 7. The antibodies ST2485 and BC-2 and the normal mouse immunoglobulins (nMIgG) were dispensed at increasing concentrations on plates sensitised with tenascin C (a) or with the Tn A₍₁₋₄₎-D fragment (b); the addition of the secondary antimouse antibody labelled with alkaline phosphatase and the related chromogenic substrate (pNPP) made it possible to determine the dose-response curve of the antibodies. The amount of ST2485 necessary to obtain 1.0 OD is approximately 13 times less than the amount of BC-2 on whole tenascin (a), and approximately 10 times less than the amount of BC-2 on the Tn (A1-4-D) fragment (b).

human tenascin C (human) [7] = target: human tenascin C (human) (UniProt P24821); test: competitive ELISA on tenascin C; competitor biotinylated BC-2 at fixed concentration
[8] = target: T2, EGF-like fragment of human tenascin (human, UniProt P24821 174-621, limits assumed); test: Western blot
T2 construct: domain: EGF-like
T2 sequence (looked up): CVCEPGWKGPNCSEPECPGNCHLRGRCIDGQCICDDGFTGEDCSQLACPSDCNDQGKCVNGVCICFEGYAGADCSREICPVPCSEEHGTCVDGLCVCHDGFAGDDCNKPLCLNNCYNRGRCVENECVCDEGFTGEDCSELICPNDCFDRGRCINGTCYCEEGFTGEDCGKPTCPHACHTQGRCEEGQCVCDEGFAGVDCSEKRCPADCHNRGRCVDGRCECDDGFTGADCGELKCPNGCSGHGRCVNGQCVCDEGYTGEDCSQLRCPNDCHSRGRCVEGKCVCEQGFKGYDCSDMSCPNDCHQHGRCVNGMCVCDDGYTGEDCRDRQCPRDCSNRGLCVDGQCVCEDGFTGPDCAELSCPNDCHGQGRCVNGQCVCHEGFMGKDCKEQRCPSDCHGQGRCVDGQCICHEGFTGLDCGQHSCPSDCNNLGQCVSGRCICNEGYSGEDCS

human tenascin C (human) [9] = target: human tenascin C (human) (UniProt P24821); test: ELISA on plates coated with tenascin C, reference BC-2
[10] = target: T1, Tn (A(1-4)-D) fragment of human tenascin; test: competitive ELISA on plates coated with Tn A(1-4)-D fragment; unlabelled antibody at increasing concentration against biotinylated BC-2 at a fixed concentration, HRP-streptavidin/TMB
Description: The biotinylated antibody BC-2, at a concentration established in preliminary experiments, is dispensed with non-biotinylated BC-2 (curve 1) or ST2485 (curve 2) in increasing concentrations on plates sensitised with the antigen tenascin C (a), or Tn A₍₁₋₄₎-D fragment (b). The binding of the biotinylated antibody is measured after addition of HRP-streptavidin and the related chromogenic substrate TMB.

human tenascin C (human) [11] = target: human tenascin C (human) (UniProt P24821); test: ELISA on plates coated with tenascin C, alkaline phosphatase anti-mouse antibody, pNPP
human tenascin C (human) [12] = target: human tenascin C (human) (UniProt P24821); test: BIAcore on whole tenascin, reference biotinylated BC-2

Molecule: anti-tenascin monoclonal antibody BC-2
Kd [1]: 73.9 nM | Kd (human tenascin C (human) [2]): 254 nM

B1: anti-human tenascin monoclonal antibody ST2485 (antibody, V domains shown)
VH: EVQLQQSGPELVKPGASMKISCKASGYSFTGYTMNWVKQSHGKNLEWIGLINPHNGGTTYNQKFKGKATLTVDKSSNTAYMELLSLTSEDSAVYYCTRPGGYYWFFDVWGAGTTVTVSS
VL: QIVLSQSPAILSASPGEKVTMTCRANSSVRFMHWYQQKPGSSPKPWIYATSNLASGVPARFSGSGSGTSYSVTISRVEAEDAATYYCQQWSSNSPRTFGGGTKVEIRR
modifications: part of the light chain is N-glycosylated (glycosylated and non-glycosylated variants; site not numbered)
notes: Mouse immunoglobulin of IgG1/k isotype from hybridoma cST2485
fold less antibody than BC-2 needed to obtain 1.0 OD [6]: ~10 fold | % inhibition of BC-2 binding (human tenascin C (human) [7]): 40% | binding result [8]: no binding | Kd [1]: 0.972 nM | koff [1]: 0.000319 s⁻¹ | kon [1]: 328000 M⁻¹ s⁻¹ | Kd (human tenascin C (human) [2]): 0.977 nM | fold less antibody than BC-2 needed to obtain 1.0 OD (human tenascin C (human) [9]): 13 fold | IC50 (read off the curve) [10]: ~0.03 µg/mL | EC50 (read off the curve) (human tenascin C (human) [11]): 0.02 µg/mL

The remaining lines, values ahead:

residual immunoreactivity (human tenascin C (human) [3]): 88% | residual immunoreactivity [4]: 83% | Kd (human tenascin C (human) [5]): 371 nM
Molecule: biotinylated BC-2 (antibody)

residual immunoreactivity (human tenascin C (human) [3]): 76% | fold greater affinity than biotinylated BC-2 (human tenascin C (human) [12]): 100 fold | Kd (human tenascin C (human) [5]): 2.88 nM
B2: biotinylated ST2485 (antibody, V domains shown)
VH: B1 VH
VL: B1 VL
modifications: biotinylated, 8.3 biotins/molecule of antibody (sites not given)
